B1: GFP-CRY1 (N. benthamiana) [Arabidopsis] / cLUC-COP1 [Arabidopsis] (parent)
chain 1: MSGSVSGCGSGGCSIVWFRRDLRVEDNPALAAAVRAGPVIALFVWAPEEEGHYHPGRVSRWWLKNSLAQLDSSLRSLGTCLITKRSTDSVASLLDVVKSTGASQIFFNHLYDPLSLVRDHRAKDVLTAQGIAVRSFNADLLYEPWEVTDELGRPFSMFAAFWERCLSMPYDPESPLLPPKKIISGDVSKCVADPLVFEDDSEKGSNALLARAWSPGWSNGDKALTTFINGPLLEYSKNRRKADSATTSFLSPHLHFGEVSVRKVFHLVRIKQVAWANEGNEAGEESVNLFLKSIGLREYSRYISFNHPYSHERPLLGHLKFFPWAVDENYFKAWRQGRTGYPLVDAGMRELWATGWLHDRIRVVVSSFFVKVLQLPWRWGMKYFWDTLLDADLESDALGWQYITGTLPDSREFDRIDNPQFEGYKFDPNGEYVRRWLPELSRLPTDWIHHPWNAPESVLQAAGIELGSNYPLPIVGLDEAKARLHEALSQMWQLEAASRAAIENGSEEGLGDSAEVEEAPIEFPRDITMEETEPTRLNPNRRYEDQMVPSITSSLIRPEEDEESSLNLRNSVGDSRAEVPRNMVNTNQAQQRRAEPASNQVTAMIPEFNIRIVAESTEDSTAESSSSGRRERSGGIVPEWSPGYSEQFPSEENGIGGGSTTSSYLQNHHEILNWRRLSQTG
chain 2: MEEISTDPVVPAVKPDPRTSSVGEGANRHENDDGGSGGSEIGAPDLDKDLLCPICMQIIKDAFLTACGHSFCYMCIITHLRNKSDCPCCSQHLTNNQLYPNFLLDKLLKKTSARHVSKTASPLDQFREALQRGCDVSIKEVDNLLTLLAERKRKMEQEEAERNMQILLDFLHCLRKQKVDELNEVQTDLQYIKEDINAVERHRIDLYRARDRYSVKLRMLGDDPSTRNAWPHEKNQIGFNSNSLSIRGGNFVGNYQNKKVEGKAQGSSHGLPKKDALSGSDSQSLNQSTVSMARKKRIHAQFNDLQECYLQKRRQLADQPNSKQENDKSVVRREGYSNGLADFQSVLTTFTRYSRLRVIAEIRHGDIFHSANIVSSIEFDRDDELFATAGVSRCIKVFDFSSVVNEPADMQCPIVEMSTRSKLSCLSWNKHEKNHIASSDYEGIVTVWDVTTRQSLMEYEEHEKRAWSVDFSRTEPSMLVSGSDDCKVKVWCTRQEASVINIDMKANICCVKYNPGSSNYIAVGSADHHIHYYDLRNISQPLHVFSGHKKAVSYVKFLSNNELASASTDSTLRLWDVKDNLPVRTFRGHTNEKNFVGLTVNSEYLACGSETNEVYVYHKEITRPVTSHRFGSPDMDDAEEEAGSYFISAVCWKSDSPTMLTANSQGTIKVLVLAA

Variants of: B1
Assay: luciferase complementation imaging (LCI) competition assay (cLUC-COP1 + HY5-nLUC)
Conditions: with cLUC-COP1 [Arabidopsis]; transfected N. benthamiana leaves, n = 22, CCD camera; value is the mean ('+'), median about 0.95; GFP-NLS-GUS control = 1; higher signal = less displacement …; parent: 0.6; read off a plot

Question: chain 1 V548A P549A was tested. Which screen value did it give?
Answer: 1.1

Variants of: B1
Assay: mammalian three-hybrid (M3H) competition assay (displacement of HY5-VP16 from E-COP1)
Conditions: with E-COP1 [Arabidopsis]; CHO-K1 cells, blue light (10 μmol m−2 s−1), 24 h; higher signal = less displacement of HY5 by the CRY1 variant; GFP control est. 150; parent: 30; read off a plot

Question: How did the screen value (Au (SEAP/sNLuc)) turn out when chain 1 V548A P549A was run?
Answer: 150

Same assay, conditions: with E-COP1 [Arabidopsis]; CHO-K1 cells, darkness, 24 h; higher signal = less displacement of HY5 by the CRY1 variant; GFP control est. 150; parent: 76; read off a plot

Question: Which screen value (Au (SEAP/sNLuc)) does the source give for chain 1 V548A P549A here?
Answer: 130
